Measurements from US20180282719A1 (published 2018).
Positions count from the first letter of the chain named.

T1: recombinant soluble human IL-6 receptor (SR344) (human, UniProt P08887 20-344, biotinylated (sites not given) where immobilized via streptavidin or used in phage ELISA)
T1 construct: also called soluble IL-6 receptor; membrane-type IL-6 receptor (when biotinylated and immobilized on the chip)
T1 sequence (looked up): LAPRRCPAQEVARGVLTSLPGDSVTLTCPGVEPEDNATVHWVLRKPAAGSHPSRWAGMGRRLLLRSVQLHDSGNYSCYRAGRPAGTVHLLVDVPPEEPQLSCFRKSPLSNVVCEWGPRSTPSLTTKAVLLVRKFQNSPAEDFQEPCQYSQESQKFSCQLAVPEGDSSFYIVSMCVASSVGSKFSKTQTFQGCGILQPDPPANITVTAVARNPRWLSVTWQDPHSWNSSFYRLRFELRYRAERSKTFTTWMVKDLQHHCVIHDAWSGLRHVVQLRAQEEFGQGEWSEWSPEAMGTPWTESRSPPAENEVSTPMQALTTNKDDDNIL

B1: humanized PM1 antibody (wild type, WT) (antibody, human IgG1, kappa, V domains shown)
VH: QVQLQESGPGLVRPSQTLSLTCTVSGYSITSDHAWSWVRQPPGRGLEWIGYISYSGITTYNPSLKSRVTMLRDTSKNQFSLRLSSVTAADTAVYYCARSLARTTAMDYWGQGSLVTVSS
VL: DIQMTQSPSSLSASVGDRVTITCRASQDISSYLNWYQQKPGKAPKLLIYYTSRLHSGVPSRFSGSGSGTDFTFTISSLQPEDIATYYCQQGNTLPYTFGQGTKVEIKR
notes: IgG1; also called WT-IgG1; wild type humanized anti-IL-6 receptor antibody
B2: H3pI/L73 (antibody, IgG1, V domains shown)
VH: QVQLQESGPGLVKPSETLSLTCAVSGHSISHDHAHSWVRQPPGEGLEWIGYISYSGITNYNPSLKGRVTISRDTSKNQFSLKLSSVTAADTAAYYCARSLARTTAMDYWGEGTLVTVSS
VL: DIQMTQSPSSLSASVGDSVTITCQASQHISSHLNWYQQKPGKAPELLIYYGSHLHSGVPSRFSGSGSGTDFTFTISSLEAEDAATYYCGQGNRLPYTFGQGTKVEIE
notes: tested as IgG1; also called H3pI/L73-IgG1; H3pl/L73
B3: H170/L82 (antibody, IgG1, V domains shown)
VH: B2 VH with D32H, N59H, S63H, S99V, T103I, Y108H
VL: B2 VL with H28D
notes: expressed and purified as IgG (IgG1); also called H170/L82-IgG1
B4: Fv4-IgG1 (antibody)
heavy: not shown
light: DIQMTQSPSSLSASVGDSVTITCQASTDISSHLNWYQQKPGKAPELLIYYGSHLLSGVPSRFSGSGSGTDFTFTISSLEAEDAATYYCGQGNRLPYTFGQGTKVEIERTVAAPSVFIFPPSDEQLKSGTASVVCLLNNFYPREAKVQWKVDNALQSGNSQESVTEQDSKDSTYSLSSTLTLSKADYEKHKVYACEVTHQGLSSPVTKSFNRGEC
notes: VH3-IgG1 / VL3-CK

Biological target: T1, recombinant soluble human IL-6 receptor …
Assay: SPR Biacore T100, antibody on protein A/G chip, SR344 analyte, pH 5.8, 37 C
Description: (§1) Kinetic analyses of antigen-antibody reactions at pH 5.8 and pH 7.4 were carried out using a Biacore™ T100 surface plasmon resonance system (GE Healthcare) on the four antibodies: humanized PM1 antibody (WT) and H3pI/L73, CLH5/L73, and H170/L82 produced in Examples 2 and 4 (buffer: 10 mM MES (pH 7.4 or pH 5.8), 150 mM NaCl, and 0.05% TWEEN® 20 (polyoxyethelene sorbitan monolaurate)). Various antibodies were bound onto a sensor chip immobilized with recomb-protein A/G (Pierce) by amine coupling. SR344 adjusted to concentrations of 9.8 to 400 nM was injected to the chip as an analyte. […] All the measurements were carried out at 37° C. Association rate constants kₐ (1/Ms) and dissociation rate constants kd (1/s) were calculated using Biacore T100™ Evaluation Software (GE Healthcare), and dissociation constants KD (M) were calculated on the basis of those values (Table 5). Moreover, the ratio of the affinities at pH 5.8 and pH 7.4 were calculated for each clone to evaluate pH-dependent binding. All the measurements were carried out at 37° C.

Which results are given for B1?
Kd: 5 nM; koff: 0.0038 s⁻¹; kon: 760000 M⁻¹ s⁻¹

For B2, which Kd is on record?
The Kd was 57 nM.

What about the koff of the same binder?
Its koff is 0.0097 s⁻¹.

What about the kon of the same binder?
Its kon is 170000 M⁻¹ s⁻¹.

With B3 as the binder, how does the Kd read?
The Kd was 640 nM.

What about the koff of the same binder?
Its koff is 0.017 s⁻¹.

What about the kon of the same binder?
Its kon is 26000 M⁻¹ s⁻¹.

Biological target: T1, recombinant soluble human IL-6 receptor …
Assay: SPR Biacore T100, antibody on protein A/G chip, SR344 analyte, pH 7.4, 37 C
Description: as §1

What does the source list for B1?
Kd: 2.1 nM; koff: 0.001 s⁻¹; kon: 510000 M⁻¹ s⁻¹

Which results are given for B2?
Kd: 1.4 nM; koff: 0.00074 s⁻¹; kon: 540000 M⁻¹ s⁻¹

B3 was tested. Which Kd did it give?
Its Kd is 1.6 nM.

What about the koff of the same binder?
Its koff is 0.0011 s⁻¹.

And the kon?
Its kon is 680000 M⁻¹ s⁻¹.

Biological target: T1, recombinant soluble human IL-6 receptor …
Assay: SPR Biacore T100, antibody on protein A/G chip, SR344 analyte, pH 5.8, 37 C
Remark: another data set of the same source
Description: Kinetic analysis of antigen-antibody reactions at pH 7.4 and pH 5.8 was carried out using a Biacore T100™ surface plasmon resonance system (GE Healthcare) for the four types of antibodies prepared: WT-IgG1, H54/L28-IgG1, H170/L82-IgG1, and Fv4-IgG1 (buffer: 10 mM MES (pH 7.4 or pH 5.8), 150 mM NaCl, 0.05% Surfactant P20 (polyoxyethelene sorbitan monolaurate)). The antibodies were bound to a sensor chip on which recomb-protein A/G (Pierce) was immobilized by amine coupling, and SR344 adjusted to an appropriate concentration was injected therein as an analyte. The association with and dissociation from SR344 of each type of antibody were observed on a real-time basis. All the measurements were carried out at 37° C. Association rate constants kₐ (1/Ms) and dissociation rate constants kd (1/s) were calculated using Biacore T100™ Evaluation Software (GE Healthcare), and dissociation constants KD (M) were calculated based on those values (Table 17).

For B1, which Kd is on record?
Its Kd is 3.1 nM.

And the koff?
Its koff is 0.0027 s⁻¹.

And the kon?
The kon was 890000 M⁻¹ s⁻¹.

B3 was tested. Which Kd did it give?
The Kd was 100 nM.

What about the koff of the same binder?
Its koff is 0.013 s⁻¹.

And the kon?
The kon was 120000 M⁻¹ s⁻¹.

How did the Kd turn out when B4 was run?
Its Kd is 26 nM.

What about the koff of the same binder?
Its koff is 0.037 s⁻¹.

And the kon?
Its kon is 1.4e+06 M⁻¹ s⁻¹.

Biological target: T1, recombinant soluble human IL-6 receptor …
Assay: SPR Biacore T100, biotinylated SR344 on streptavidin chip (model of membrane-type IL-6 receptor), antibody as analyte, 37 C

With B1 as the binder, how does the “kd (pH 5.8)/kd (pH 7.4)” value read?
Its value is 1.

B2 was tested. Which “kd (pH 5.8)/kd (pH 7.4)” value did it give?
Its value is 2.59.

With B4 as the binder, how does the “kd (pH 5.8)/kd (pH 7.4)” value read?
The value was 5.56.

Biological target: T1, recombinant soluble human IL-6 receptor …
Assay: SPR Biacore T100, biotinylated SR344 on streptavidin chip (model of membrane-type IL-6 receptor), antibody as analyte, bound at pH 7.4, dissociation at pH 5.8, 37 C

B1 was tested. Which koff did it give?
The koff was 0.00025 s⁻¹.

How did the koff turn out when B2 was run?
Its koff is 0.00067 s⁻¹.

For B4, which koff is on record?
Its koff is 0.0026 s⁻¹.

Biological target: T1, recombinant soluble human IL-6 receptor …
Assay: SPR Biacore T100, biotinylated SR344 on streptavidin chip (model of membrane-type IL-6 receptor), antibody 0.25 ug/mL as analyte, bound at pH 7.4, dissociation at pH 5.8, 37 C
Description: Binding to the membrane-type IL-6 receptor was evaluated by evaluating binding to the IL-6 receptor immobilized on a sensor chip. SR344 was biotinylated in accordance with a method known among persons with ordinary skill in the art, and the biotinylated SR344 was immobilized on the sensor chip via streptavidin using the affinity between streptavidin and biotin. All the measurements were carried out at 37° C. The mobile phase buffer was 10 mM MES (pH 5.8), 150 mM NaCl and 0.05% TWEEN® 20 (polyoxyethelene sorbitan monolaurate).
The pH-dependently-binding clones were injected under the condition of pH 7.4 to allow them to bind to SR344, and then, the pH-dependent dissociation of each clone at the pH of the mobile phase, pH 5.8, was observed. The results are shown in FIG. 21 (results for Fv1-M71, Fv1-M73, Fv3-M71, and Fv3-M73 are shown in FIG. 21, while results for other clones are shown in FIGS. 17 and 19). Analyses were carried out in the same manner as in Example 10 and the pH dependencies of the dissociation rate constants of all of the eleven types of clones are shown in Table 12.

For B1, which koff is on record?
The koff was 0.00025 s⁻¹.

Which koff does the source give for B2 here?
The koff was 0.00067 s⁻¹.

Which koff does the source give for B4 here?
The koff was 0.0026 s⁻¹.
